Experimental data from the supplement of paper PMC10567573.

B1: BEX1 (parent)
chain: EENMERIGEEVRQLMEKLREKQLS
B2: TMEM106C (parent)
chain: TVPEILVHNIVIFMRTSVKISYIG

Variants of: B1
Assay: protein stability index of a GFP-peptide fusion (GPS, HEK-293T) (PSI 1-6); higher = more stable
Settings: c terminus: a fixed tail appended
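Also: lentivirally expressed fusions sorted by FACS into six bins by GFP to DsRed ratio, PSI derived from sequencing read proportions per bin multiplied by bin number.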

| Variant | protein stability index |
| --- | --- |
| EENGERIGEEVRQLMEKLREKQLS [M4G] | 5.48 |
| LENMERIGEEVRQLMEKLREKQLS [E1L] | 3.54 |
| SENMERIGEEVRQLMEKLREKQLS [E1S] | 4 |
| TENMERIGEEVRQLMEKLREKQLS [E1T] | 4.56 |
| DENMERIGEEVRQLMEKLREKQLS [E1D] | 2.37 |
| FENMERIGEEVRQLMEKLREKQLS [E1F] | 4.32 |
| IENMERIGEEVRQLMEKLREKQLS [E1I] | 4.77 |
| CENMERIGEEVRQLMEKLREKQLS [E1C] | 4.29 |
| YENMERIGEEVRQLMEKLREKQLS [E1Y] | 4.14 |
| QENMERIGEEVRQLMEKLREKQLS [E1Q] | 4.41 |
| KENMERIGEEVRQLMEKLREKQLS [E1K] | 3.81 |
| RENMERIGEEVRQLMEKLREKQLS [E1R] | 3.55 |
| NENMERIGEEVRQLMEKLREKQLS [E1N] | 4.31 |
| EENMERCGEEVRQLMEKLREKQLS [I7C] | 4.87 |
| EENMERHGEEVRQLMEKLREKQLS [I7H] | 5.86 |
| EENMERYGEEVRQLMEKLREKQLS [I7Y] | 4.92 |
| EENMERLGEEVRQLMEKLREKQLS [I7L] | 4.74 |
| EENMERSGEEVRQLMEKLREKQLS [I7S] | 5.17 |
| EENMERGGEEVRQLMEKLREKQLS [I7G] | 4.97 |
| EENMERTGEEVRQLMEKLREKQLS [I7T] | 5.18 |
| EENMERMGEEVRQLMEKLREKQLS [I7M] | 4.83 |
| EENMERQGEEVRQLMEKLREKQLS [I7Q] | 5.33 |
| EENMERFGEEVRQLMEKLREKQLS [I7F] | 4.78 |
| EENMERKGEEVRQLMEKLREKQLS [I7K] | 4.23 |
| EENMERRGEEVRQLMEKLREKQLS [I7R] | 5.16 |

Variants of: B2
Assay: as above
Settings: c terminus: a fixed tail appended

| Variant | protein stability index |
| --- | --- |
| TVPEILVHNIVIFMRTSVKISYIT [G24T] | 2.06 |
| TVPEILVHNIVIFMRTSVKISYIN [G24N] | 3.8 |
| TVPEILVHNIVIFMRTSVKISYIW [G24W] | 2.75 |
| TVPEILVHNIVIFMRTSVKISYIH [G24H] | 2.84 |
| TVPEILVHNIVIFMRTSVKISYII [G24I] | 3.38 |
| TVPEILVHNIVIFMRTSVKISYIR [G24R] | 3.06 |
| TVPEILVHNIVIFMRTSVKISYIY [G24Y] | 2.61 |
| TVPEILVHNIVIFMRTSVKISYIK [G24K] | 2.98 |
| TVPEILVHNIVIFMRTSVKISYIF [G24F] | 3.89 |
| TVPEILVHNIVIFMRTSVKISYIL [G24L] | 2.82 |
| TVPEILVHNIVIFMRTSVKISYIS [G24S] | 3.61 |
| TVPEILVHNIVIFMRTSVKISYID [G24D] | 2.27 |
| TVPEILVHNIVIFMRTSVKISYIM [G24M] | 3.57 |
| TVPEILVHNIVIFMRTSVKISYIC [G24C] | 2.8 |
| TVPEILVHNIVIFMRTSVKISYIV [G24V] | 2.95 |
| TVPEILVHNIVIFMRTSVKISYIE [G24E] | 3.36 |
| TVPEILVHNIVIFMRTSVKISYIA [G24A] | 2.22 |
| TVPEILVHNIVIFMRTSVKTSYIG [I20T] | 3.24 |
| TVPEILVHNIVIFMRTSVKWSYIG [I20W] | 2.88 |
| TVPEILVHNIVIFMRTSVKYSYIG [I20Y] | 3.86 |
| TVPEILVHNIVIFMRTSVKVSYIG [I20V] | 1.4 |
| TVPEILVHNIVIFMRTSVKISNIG [Y22N] | 3.33 |
| TVPEILVHNIVIFMRTSVKISHIG [Y22H] | 2.67 |

| Variant | protein stability index |
| --- | --- |
| TVPEILVHNIVIFMRTSVKISIIG [Y22I] | 4.35 |
| TVPEILVHNIVIFMRTSVKISGIG [Y22G] | 2.47 |
| TVPEILVHNIVIFMRTSVKISSIG [Y22S] | 2.31 |
| TVPEILVHNIVIFMRTSVKISPIG [Y22P] | 3 |
| TVPEILVHNIVIFMRTSVKISMIG [Y22M] | 3.99 |
| TVPEILVHNIVIFMRTSVKISQIG [Y22Q] | 3.85 |
| TVPEILVHNIVIFMRTSVKISWIG [Y22W] | 2.65 |
| TVPEILVHNIVIFMRTSVKISFIG [Y22F] | 2.35 |
| TVPEILVHNIVIFMRTSVKISAIG [Y22A] | 3.58 |
| TVPEILVHNIVIFMRTSVKISDIG [Y22D] | 2.46 |
| TVPEILVHNIVIFMRTSVKISKIG [Y22K] | 2.86 |
| TVPEILVHNIVIFMRTSVKISVIG [Y22V] | 4.14 |
| TVPEILVHNIVIFMRTSVKISRIG [Y22R] | 3.04 |
| TVPEILVHNIVIFMRTSVKISCIG [Y22C] | 2.5 |
| TVPEILVHNIVIFMRTSVKISLIG [Y22L] | 2.73 |
| TVPEILVHNIVIFMRTSVKISTIG [Y22T] | 2.84 |
| TVPEILVHNIVIFMRTSVKIGYIG [S21G] | 1.99 |
| TVPEILVHNIVIFMRTSVKIKYIG [S21K] | 2.53 |
| TVPEILVHNIVIFMRTSVKITYIG [S21T] | 3.42 |
| TVPEILVHNIVIFMRTSVKIHYIG [S21H] | 2.81 |
| TVPEILVHNIVIFMRTSVKIQYIG [S21Q] | 2.04 |
| TVPEILVHNIVIFMRTSVKIWYIG [S21W] | 1.95 |
| TVPEILVHNIVIFMRTSVKIEYIG [S21E] | 3.24 |

| Variant | protein stability index |
| --- | --- |
| TVPEILVHNIVIFMRTSVKIIYIG [S21I] | 3.51 |
| TVPEILVHNIVIFMRTSVKIFYIG [S21F] | 3.13 |
| TVPEILVHNIVIFMRTSVKILYIG [S21L] | 3.4 |
| TVPEILVHNIVIFMRTSVKIDYIG [S21D] | 2.53 |
| TVPEILVHNIVIFMRTSVKIMYIG [S21M] | 3.51 |
| TVPEILVHNIVIFMRTSVKICYIG [S21C] | 2.77 |
| TVPEILVHNIVIFMRTSVKISYQG [I23Q] | 4.15 |
| TVPEILVHNIVIFMRTSVKISYHG [I23H] | 1.77 |
| TVPEILVHNIVIFMRTSVKISYWG [I23W] | 3.22 |
| TVPEILVHNIVIFMRTSVKISYSG [I23S] | 3.05 |
| TVPEILVHNIVIFMRTSVKISYRG [I23R] | 2.81 |
| TVPEILVHNIVIFMRTSVKISYTG [I23T] | 3.01 |
| TVPEILVHNIVIFMRTSVKISYGG [I23G] | 2.88 |
| TVPEILVHNIVIFMRTSVKISYVG [I23V] | 2.4 |
| TVPEILVHNIVIFMRTSVKISYKG [I23K] | 4.25 |
| TVPEILVHNIVIFMRTSVKISYFG [I23F] | 3.86 |
| TVPEILVHNIVIFMRTSVKISYNG [I23N] | 3.26 |
| TVPEILVHNIVIFMRTSVKISYDG [I23D] | 3.85 |
| TVPEILVHNIVIFMRTSVKISYPG [I23P] | 3.49 |
| TVPEILVHNIVIFMRTSVKISYAG [I23A] | 3.15 |
| TVPEILVHNIVIFMRTSVKISYMG [I23M] | 3.06 |
| TVPEILVHNIVIFMRTSVKISYCG [I23C] | 2.41 |
| TVPEILVHNIVIFMRTSVKISYYG [I23Y] | 3.25 |
